Paper PMC10770632 (STAR Protocols, 2023)

Molecular target: T1, D3 fragment of DROSHA (amino acids 390–1365) (human, UniProt Q9NRR4 390-1365)
T1 sequence (looked up): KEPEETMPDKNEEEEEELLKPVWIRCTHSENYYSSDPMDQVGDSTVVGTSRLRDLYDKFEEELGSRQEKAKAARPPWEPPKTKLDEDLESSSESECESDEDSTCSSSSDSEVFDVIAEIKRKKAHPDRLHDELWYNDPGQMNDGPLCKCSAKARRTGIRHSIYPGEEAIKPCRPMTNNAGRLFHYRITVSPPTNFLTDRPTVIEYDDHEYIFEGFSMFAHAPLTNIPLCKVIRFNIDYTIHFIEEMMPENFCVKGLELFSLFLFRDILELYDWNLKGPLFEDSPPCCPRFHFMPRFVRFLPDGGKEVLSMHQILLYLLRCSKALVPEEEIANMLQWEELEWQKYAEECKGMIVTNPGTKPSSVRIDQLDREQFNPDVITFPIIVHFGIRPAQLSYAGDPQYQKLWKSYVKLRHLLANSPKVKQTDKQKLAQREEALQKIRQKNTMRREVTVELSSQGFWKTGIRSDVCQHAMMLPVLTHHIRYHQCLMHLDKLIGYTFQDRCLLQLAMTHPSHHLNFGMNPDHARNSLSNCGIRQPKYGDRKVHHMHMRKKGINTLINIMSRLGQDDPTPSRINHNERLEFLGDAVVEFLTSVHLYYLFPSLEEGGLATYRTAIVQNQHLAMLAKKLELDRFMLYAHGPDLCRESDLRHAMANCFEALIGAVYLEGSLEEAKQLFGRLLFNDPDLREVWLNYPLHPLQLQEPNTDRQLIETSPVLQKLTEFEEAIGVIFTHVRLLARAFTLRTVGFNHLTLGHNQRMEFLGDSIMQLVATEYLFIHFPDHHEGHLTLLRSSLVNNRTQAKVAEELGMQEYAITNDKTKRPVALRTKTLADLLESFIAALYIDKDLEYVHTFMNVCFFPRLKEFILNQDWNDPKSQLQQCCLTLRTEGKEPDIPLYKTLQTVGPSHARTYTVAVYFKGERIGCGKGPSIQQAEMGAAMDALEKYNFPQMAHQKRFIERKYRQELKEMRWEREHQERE
Experiment: reconstitution by mixing purified proteins

binding result: binds
B1: G4 fragment of DGCR8 (amino acids 285–750), dimeric (domain or fragment, human, UniProt Q8WYQ5 285-750, looked up)
chain: MTKIKTVLKSRGRPPTEPLPDGWIMTFHNSGVPVYLHRESRVVTWSRPYFLGTGSIRKHDPPLSSIPCLHYKKMKDNEEREQSSDLTPSGDVSPVKPLSRSAELEFPLDEPDSMGADPGPPDEKDPLGAEAAPGALGQVKAKVEVCKDESVDLEEFRSYLEKRFDFEQVTVKKFRTWAERRQFNREMKRKQAESERPILPANQKLITLSVQDAPTKKEFVINPNGKSEVCILHEYMQRVLKVRPVYNFFECENPSEPFGASVTIDGVTYGSGTASSKKLAKNKAARATLEILIPDFVKQTSEEKPKDSEELEYFNHISIEDSRVYELTSKAGLLSPYQILHECLKRNHGMGDTSIKFEVVPGKNQKSEYVMACGKHTVRGWCKNKRVGKQLASQKILQLLHPHVKNWGSLLRMYGRESSKMVKQETSDKSVIELQQYAKKNKPNLHILSKLQEEMKRLAEEREETR
